This passage reports Kd results from PMC3155514.

This data set deals with T1, HsRAD51(H294V) H294V (Homo sapiens) (UniProt Q06609).
T1 sequence: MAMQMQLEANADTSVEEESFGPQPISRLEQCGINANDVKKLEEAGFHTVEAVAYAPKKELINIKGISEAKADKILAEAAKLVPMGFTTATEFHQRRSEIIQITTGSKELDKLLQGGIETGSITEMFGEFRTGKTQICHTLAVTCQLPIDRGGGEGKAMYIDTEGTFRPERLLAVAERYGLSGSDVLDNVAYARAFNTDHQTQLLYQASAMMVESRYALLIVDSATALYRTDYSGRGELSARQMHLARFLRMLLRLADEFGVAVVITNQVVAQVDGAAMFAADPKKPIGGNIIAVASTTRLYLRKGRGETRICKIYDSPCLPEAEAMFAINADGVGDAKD
As to the kind of experiment: SPR. The note with it: SPR (Biacore 3000): 20 mM HEPES pH 7.5, 10% glycerol, 1 mM DTT, 1 mM MgCl2, 0.005% P-20, 2.5 mM indicated nucleotide, 150 mM KCl when indicated (text: salt …).

Consider “TCGAGAGGGTAAACCACAATTATTGATATAAAATAGTTTTGGGTAGGCGA (double strand) [50 bp dsDNA]”, for which the dissociation constant Kd was 472 nM.
